From patent US20070207498A1, “Design and construction of dimeric concanavalin a mutants” (LifeScan, Inc., priority 2005, published 2007)

Experiments:
[1] = target: T1, Concanavalin A (ConA) dimer mutant pET32 (D58N, N118C, H121C, E192Q), SEQ ID NOS: 12 and 24 (Canavalia ensiformis, UniProt P02866, D221N/E103Q/H32C/N281C); assay: FRET response of sensors, Cy3.5-labeled pET32 dimer mutant ConA (donor) with Alexa647-labeled superoxide dismutase (acceptor); assay type: binding; details: 500 mg/dL glucose; 6 μM to 24 μM ratio, Alexa647-SOD, FIG. 13
T1 construct: made in house
Text: (§1) Functional properties of recombinant ConA have been characterized by Fluorescence Resonance Energy Transfer (FRET) using a PTI QuantaMaster fluorimeter.

[2] = target: T1, Concanavalin A (ConA) dimer mutant pET32 (D58N, N118C, H121C, E192Q), SEQ ID NOS: 12 and 24; assay: FRET response of sensors, Cy3.5-labeled pET32 dimer mutant ConA (donor) with Cy5.5-labeled superoxide dismutase (acceptor); assay type: binding; details: 500 mg/dL glucose; Cy5.5-SOD, FIG. 14
Text: as §1
Sensors made with Cy3.5-labeled pET32 dimer mutant ConA and Cy5.5-labeled superoxide dismutase (SOD).

[3] = target: dye and sugar-labeled therapeutic human serum albumin (tHSA) (human) (UniProt P02768); assay: FRET competition assay (FIG. 12), 4-parameter logistic fit; unlabeled tetramer against labeled tetrameric ConA on HSA
[4] = target: dye and sugar-labeled therapeutic human serum albumin (tHSA) (human) (UniProt P02768); assay: FRET competition assay, 384-well plate: unlabeled tetramer displaces labeled tetrameric ConA from HSA; Ki estimated from EC50 and the concentration of labeled tetramer
[5] = target: T2, dye and sugar-labeled therapeutic human serum albumin (tHSA) (human, UniProt P02768 25-609, sugar-labeled (glycoconjugate); labeled with the acceptor Alexa 647; modified residues not stated); assay: FRET competition assay, 384-well plate: unlabeled competitor displaces labeled tetrameric ConA from HSA; Ki estimated from EC50 and the concentration of labeled tetramer
T2 construct: also called Alexa-HSA; Alexa-labeled Human Serum Albumin
Method: Mutant ConA was characterized by FRET. […] The EC₅₀ was calculated using a 4-parameter logistic equation.

## OC[C@H]1OC(O)[C@H](O)[C@@H](O)[C@@H]1O (some centres unmarked) [glucose]
[1]
  FRET response to the addition of glucose: approximately 262%
[2]
  FRET response to the addition of glucose: ~266%

## ConA tetramer (tetrameric ConA used as labeled partner and as unlabeled competitor in the competition binding assay) (from UniProt P02866 30-281)
[3]
  EC50: 110 nM
[4]
  Ki: 9.1 nM

B1: pET32 quad mutant ConA (D58N, N118C, H121C, E192Q), stable dimer (other)
chain: ADTIVAVELDTYPNTDIGDPSYPHIGIDIKSVRSKKTAKWNMQNGKVGTAHIIYNSVNKRLSAVVSYPNADSATVSYDVDLDNVLPEWVRVGLSASTGLYKETNTILSWSFTSKLKSCSTCETNALHFMFNQFSKDQKDLILQGDATTGTDGNLELTRVSSNGSPQGSSVGRALFYAPVHIWESSAVVASFQATFTFLIKSPDSHPADGIAFFISNIDSSIPSGSTGRLLGLFPDAN
modifications: unlabeled as competitor in the FIG. 12 assay; labeled with Cy3.5b / Cy3.5 (donor dye) in the FRET and sensor experiments, labeled residues not stated
notes: also called dimer mutant ConA; pET32 dimer ConA mutant
[5]
  Ki: ~21 nM
